Columns and labels:
[1] = system: alpha2-TALEN-L (Platinum TALEN, TRAC exon 1); assay: cell_activity; conditions: half-site not delineated
[2] = system: alpha2-TALEN-R (Platinum TALEN, TRAC exon 1); assay: cell_activity; conditions: half-site not delineated
[3] = 1G4 knock-in efficiency in beta-null Jurkat with alpha2-TALEN pair and conventional PITCh vector
[4] = 1G4 knock-in efficiency in beta-null Jurkat with alpha2-TALEN pair and modified PITCh vector

Sequence	activity [1, 3] [%]	activity [2, 3] [%]	activity [1, 4] [%]	activity [2, 4] [%]
GTCTGCCTATTCACCGATTGAAGATTTTGATTCAATGTGTCACAAAGTAAGGATTC (double strand)	3.1	3.1	–	–
GTCTGCCTATTCACCGATTGAAGATTTTGATTCAATGTGTCACAAAGTAAGGA (double strand)	–	–	3.5	3.5
